The source of these data is publication PMC6202324, “C1GALT1 predicts poor prognosis and is a potential therapeutic target in head and neck cancer” (Oncogene, 2018).

The target of assay [1] is C1GALT1 (Core 1 β1,3-galactosyltransferase) (Homo sapiens, UniProt Q9NS00). Briefly: cellular thermal shift assay (CETSA, western blot) in SAS and OEC-M1 cells; destabilization, dose-dependent. The assay is classed as cell-based. In general terms: Immunoblotting shows a protein as a band on a membrane.
The target of assay [2] is EGFR from C1GALT1 knockdown HNSCC cells (human (endogenous in SAS and OEC-M1)) (UniProt P00533). Briefly: ELISA; ligand-binding assay: 100 µg lysate of OEC-M1 cells (siCtr or siC1GALT1-2, 72 h) incubated 18 h on plates coated with anti-EGFR antibody; biotin-EGF at different concentrations, 37 °C, 3 h; streptavidin-HRP, O.D. 490 nm; Kd estimated from Scatchard plot.
Assay [3] deals with EGFR (endogenous, from control HNSCC cells) (human (endogenous in SAS and OEC-M1)) (UniProt P00533). The description is as above.
For assay [4], the target named is EGFR from C1GALT1 knockdown HNSCC cells (human (endogenous in SAS and OEC-M1)) (UniProt P00533). Briefly: ELISA; ligand-binding assay: 100 µg lysate of SAS cells (siCtr or siC1GALT1-2, 72 h) incubated 18 h on plates coated with anti-EGFR antibody; biotin-EGF at different concentrations, 37 °C, 3 h; streptavidin-HRP, O.D. 490 nm; Kd estimated from Scatchard plot.
For assay [5], the target named is EGFR (endogenous, from control HNSCC cells) (human (endogenous in SAS and OEC-M1)) (UniProt P00533). The description is as above.

C1GALT1 (Core 1 β1,3-galactosyltransferase), sequence (Q9NS00 whole entry): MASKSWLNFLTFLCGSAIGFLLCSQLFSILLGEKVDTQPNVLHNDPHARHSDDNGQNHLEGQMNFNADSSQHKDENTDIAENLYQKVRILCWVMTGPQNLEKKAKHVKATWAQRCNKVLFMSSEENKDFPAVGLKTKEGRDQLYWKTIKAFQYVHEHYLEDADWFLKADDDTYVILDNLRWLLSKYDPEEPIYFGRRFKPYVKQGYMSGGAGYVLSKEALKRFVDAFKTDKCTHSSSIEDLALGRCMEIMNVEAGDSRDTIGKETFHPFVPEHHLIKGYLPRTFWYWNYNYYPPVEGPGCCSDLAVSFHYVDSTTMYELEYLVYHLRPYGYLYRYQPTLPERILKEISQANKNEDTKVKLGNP

For the compound `CCC(C)n1ncn(-c2ccc(N3CCN(c4ccc(OCC5COC(Cn6cncn6)(c6ccc(Cl)cc6Cl)O5)cc4)CC3)cc2)c1=O` (centres unmarked) [ITZ, itraconazole], the “cellular thermal shift assay (CETSA, western blot) in SAS and OEC-M1 cells; dest” value in assay [1] is “melting temperature of C1GALT1 was decreased when SAS and OEC-M1 cells were treated with itraconazole”.
The Kd is the concentration at which binding is half-saturated. For Biotin-EGF (ligand), the Kd in assay [2] is 0.0588 µM; in assay [3], 0.0261 µM; in assay [4] it was 0.0423 µM; in assay [5], 0.032 µM.
